Assay results: IntAct's records for PubMed 20679240

B1: Circadian clock oscillator protein KaiC (Synechococcus elongatus (strain PCC 7942)), Q79PF4 (parent)
chain: MTSAEMTSPNNNSEHQAIAKMRTMIEGFDDISHGGLPIGRSTLVSGTSGTGKTLFSIQFLYNGIIEFDEPGVFVTFEETPQDIIKNARSFGWDLAKLVDEGKLFILDASPDPEGQEVVGGFDLSALIERINYAIQKYRARRVSIDSVTSVFQQYDASSVVRRELFRLVARLKQIGATTVMTTERIEEYGPIARYGVEEFVSDNVVILRNVLEGERRRRTLEILKLRGTSHMKGEYPFTITDHGINIFPLGAMRLTQRSSNVRVSSGVVRLDEMCGGGFFKDSIILATGATGTGKTLLVSRFVENACANKERAILFAYEESRAQLLRNAYSWGMDFEEMERQNLLKIVCAYPESAGLEDHLQIIKSEINDFKPARIAIDSLSALARGVSNNAFRQFVIGVTGYAKQEEITGLFTNTSDQFMGAHSITDSHISTITDTIILLQYVEIRGEMSRAINVFKMRGSWHDKAIREFMISDKGPDIKDSFRNFERIISGSPTRITVDEKSELSRIVRGVQEKGPES
partner: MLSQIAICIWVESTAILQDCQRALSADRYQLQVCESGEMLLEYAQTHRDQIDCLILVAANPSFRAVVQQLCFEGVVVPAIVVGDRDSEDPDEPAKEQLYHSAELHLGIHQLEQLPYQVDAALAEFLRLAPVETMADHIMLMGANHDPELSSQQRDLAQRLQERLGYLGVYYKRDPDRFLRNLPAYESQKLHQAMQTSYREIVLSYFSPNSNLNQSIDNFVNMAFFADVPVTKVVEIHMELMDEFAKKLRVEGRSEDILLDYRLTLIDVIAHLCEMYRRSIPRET
B2: Circadian clock oscillator protein KaiC (Synechococcus elongatus (strain PCC 7942)), Q79PF4 (parent)
chain: B1 chain
partner: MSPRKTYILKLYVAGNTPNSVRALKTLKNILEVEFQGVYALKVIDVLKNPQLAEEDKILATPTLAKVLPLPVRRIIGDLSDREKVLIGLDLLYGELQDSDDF

Variants of: B1
Conditions: with kaia_syne7 kaiA

Variant | effect of a mutation on the interaction
S431A;T432A | decreasing interaction strength
S431E;T432E | increasing interaction strength

Variants of: B2
Conditions: with kaib_syne7 kaiB

Variant | effect of a mutation on the interaction
S431A;T432E | disrupting interaction strength
S431A;T432A | disrupting interaction strength
S431D;T432A | disrupting interaction strength
S431A | disrupting interaction strength
